Assays:
[1] = system: melanogenic genes in melanocytes; assay: Gene expression study (RNA sequencing) in PGE2-induced melanocytes; type: cell-based, human
Description: (§1) Four cell types associated with pigmentation pathways-melanocytes, keratinocytes, fibroblasts and endothelial (HUVEC) cells-were analyzed for gene expression.
(§2) To simulate the UV stimulatory pigmentation pathway process, melanocytes were pre-treated with PGE2, a normal direct consequence of UV light exposure usually emanating from exposed keratinocytes. After the 48 hour attachment culture, these melanocytes were induced with 10 uM PGE2 in melanocyte media for 24 hrs. The four primary human adult dermal cell lines were cultured and plated in well plates in triplicate and then treated with 11 different compound treatments (plus DMSO control). After 48 hours of attachment culture, the remaining fibroblasts, HUVECs and keratinocytes were treated with the test compounds listed in Table 6.
(§3) After 24 hours of compound exposure, RNA lysate preparation was carried out and samples were shipped to MedGenome for RNA extraction, library construction and sequencing to 25M paired end 100 bp reads per sample. Library prep and sequencing was completed at MedGenome.

[2] = system: hTERT-immortalized dermal melanocytes; assay: Melanocyte assay, absorbance of lysate pellets (Example 6); type: cell-based, human; settings: melanocyte lysate pellet, 5 days
Description: hTERT-immortalized dermal melanocytes were treated with various compounds.
Stocks of compounds 1 through 10 on the list below were suspended in either complete melanocyte growth media or DMSO (indicated in parentheses.) Each compound re-suspension was then diluted in melanocyte growth media to the final concentrations in Table 9.
Lysates were prepared for each sample. Briefly, 6.6×10^5 cells from each sample was spun down and collected in a vial. 150 uL of CHAPS lysis buffer was added to each duplicate sample, vortexed and placed in a dry-ice/ethanol bath for 2 minutes, then left at room temp until completed thawed. This freeze thaw was done one more time, for a total of two freeze/thaw cycles. The lysate samples were spun for 15 minutes at 14,800 rpm. The supernatant was removed, leaving a black pellet in the vial. The pellet was re-suspended in 100 uL of a 1 M NaOH/10% DMSO solution and incubated at 80° C. for 90 minutes, pipet mixing at 30 minutes, 60 minutes and at 90 minutes.
100 uL of each duplicate sample at each concentration was added to individual wells of a flat bottom 96 well plate and absorbance readings were taken at 405 nm, 490 nm and 492 nm on the Envision 2103 Multilabel Reader.

[3] = system: PMEL, tyrosinase genes, MC1/4R, EDNRB, MITF, ERK1/2, JNK, AKT1; assay: Gene expression studies of Example 5; type: cell-based
Source text: The methods similar to Examples 3-4 were used to measure expression of PMEL, tyrosinase genes, MC1/4R, EDNRB, MITF, ERK1/2, JNK, and ANKT1.
FIGS. 10A-10D illustrates the expression of PMEL (FIG. 10A), Tyrosinase genes (FIG. 10B), MC1/4R (FIG. 10C), and EDNRB (FIG. 10D) after treatment of endothelial cells with lactoferrin (Lacto), peptide derived from lactoferrin (TCV), hexapeptide-12 (Hex12), tripeptide-1 and hexapeptide-12 (TriHex), hexapeptide-11 (Hex11), tranexamic acid (Tran acid) octapeptide (Octa), phosphatidylserine (phos), Cannabidiol (CBD), and all (total).
MITF is regulated by phosphorylation. Specifically, the MAPK and Akt pathways are known to phosphorylate MITF at certain sites. FIGS. 12A-12C illustrate the expression of ERK1/2 (MAPK3/MAPK1) (FIG. 12A), JNK (FIG. 12B), AKT1 (FIG. 12C) after treatment of endothelial cells with lactoferrin (Lacto), peptide derived from lactoferrin (TCV), hexapeptide-12 (Hex12), tripeptide-1 and hexapeptide-12 (TriHex), hexapeptide-11 (Hex11), octapeptide (Octa), phosphatidylserine (phos), Cannabidiol (CBD), and all (total).

melanogenic genes = assay: Cell line melanogenic gene activity testing, overall conclusion; type: cell-based, human; settings: conclusion over melanocytes, keratinocytes, HUVECs
Description: as §1, §2, §3

[4] = system: hTERT-immortalized dermal melanocytes; assay: Melanocyte assay, daily inspection of morphology and survival (Example 6); settings: both 500 and 1000 ug/mL
Description: Melanocytes were initially plated in 6-well tissue culture plate (1.5×10^3 cells per well) in melanocyte growth media (Dermal Cell Basal Medium (ATCC® PCS-200-030 supplemented with Melanocyte Growth Kit (ATCC® PCS-200-041). Melanocytes were then expanded into 10 cm tissue culture plates at concentrations recommended by ATCC. The cells appear to fully adhere to the plate/dish while culturing with a webbed morphology. Cells were cultured at 37° C. 5% CO2 incubator.
Once the melanocytes were 100% confluent in 6-well plates, the melanocyte growth media was removed and the melanocytes were treated with media containing the above compounds; duplicate wells for each compound/concentration listed above. The duplicate vehicle control wells were fed melanocyte growth media only or melanocyte growth media with DMSO (10 uL per 10 mL melanocyte growth media).
The cells were fed the appropriate media for the next 5 days. Each day, the cells were inspected for morphology.

[5] = system: melanocytes (melanin production); assay: In vitro melanocyte comparative analysis via absorbance readings (Example 4); type: cell-based; settings: for Absorbance 405 nm / Absorbance 490 nm / Absorbance 492 nm: melanocyte lysates, 4 days
Description: Melanocytes were cultured in 6-well plates containing growth media. Once confluent, 2 concentrations of each of the 10 compounds were added to the cells in triplicate wells for 4 days. There were a total of eleven 6-well plates, one for each compound treatment and one for the vehicle control. Absorbance readings were taken on the lysates prepared for each well of the 6-well plates, normalizing for cells counts. […] Additional validation was carried out using MSH addition to media to confirm increased stimulation of melanin production. The following compounds used in this study are seen in Table 7.

B1: Lactoferrin (protein, UniProt P02788 20-710, looked up)
Lactotransferrin: GRRRSVQWCAVSQPEATKCFQWQRNMRKVRGPPVSCIKRDSPIQCIQAIAENRADAVTLDGGFIYEAGLAPYKLRPVAAEVYGTERQPRTHYYAVAVVKKGGSFQLNELQGLKSCHTGLRRTAGWNVPIGTLRPFLNWTGPPEPIEAAVARFFSASCVPGADKGQFPNLCRLCAGTGENKCAFSSQEPYFSYSGAFKCLRDGAGDVAFIRESTVFEDLSDEAERDEYELLCPDNTRKPVDKFKDCHLARVPSHAVVARSVNGKEDAIWNLLRQAQEKFGKDKSPKFQLFGSPSGQKDLLFKDSAIGFSRVPPRIDSGLYLGSGYFTAIQNLRKSEEEVAARRARVVWCAVGEQELRKCNQWSGLSEGSVTCSSASTTEDCIALVLKGEADAMSLDGGYVYTAGKCGLVPVLAENYKSQQSSDPDPNCVDRPVEGYLAVAVVRRSDTSLTWNSVKGKKSCHTAVDRTAGWNIPMGLLFNQTGSCKFDEYFSQSCAPGSDPRSNLCALCIGDEQGENKCVPNSNERYYGYTGAFRCLAENAGDVAFVKDVTVLQNTDGNNNEAWAKDLKLADFALLCLDGKRKPVTEARSCHLAMAPNHAVVSRMDKVERLKQVLLHQQAKFGRNGSDCPDKFCLFQSETKNLLFNDNTECLARLHGKTTYEKYLGPQYVAGITNLKKCSTSPLLEACEFLRK
B1 was tested, and the “melanogenic activity (FIGS. 3A-3D)” value ([1]; melanocytes pre-treated with 10 uM PGE2, 24 hours of compound exposure) was “particularly dominant in melanogenic activity”, the “expression of melanogenic genes (FIG. 4, FIG. 5)” value ([1]; melanocytes, 24 hours of compound exposure) was “downregulation of melanogenic genes” and the “Absorbance 405 nm” value ([2]; 500 ug/uL) was 0.509. The “Absorbance 490 nm” value ([2]; 500 ug/uL) was 0.334, the “Absorbance 492 nm” value ([2]; 500 ug/uL) was 0.217 and the “Absorbance 405 nm” value ([2]; 1000 ug/uL) was 0.519. For the same molecule, the “Absorbance 490 nm” value ([2]; 1000 ug/uL) was 0.312, the “Absorbance 492 nm” value ([2]; 1000 ug/uL) was 0.226 and the “melanogenic activity (expression of PMEL, Tyrosinase genes, MC1/4R, EDNRB; FIGS. 10A-10D)” value ([3]; after treatment of endothelial cells) was “robust melanogenic activity”. For the same molecule, the “effects on melanogenic activity (kinase expression linked to decreased MITF expression)” value ([3]; conclusion of Example 5) was “significant effects”, the “effects on melanogenesis activity” value (melanogenic genes) was “significant effects on melanogenesis activity” and the melanocyte morphology ([4]; 24 hour post-initial dosing) was “circular morphology”. For the same molecule, the melanocyte morphology ([4]; 48 hours post-initial dosing, maintained through the 5 day dosing period) was “returned to normal morphology”, the “Absorbance 405 nm” value ([5]; 500 ug/uL) was 0.509 and the “Absorbance 490 nm” value ([5]; 500 ug/uL) was 0.334. The “Absorbance 492 nm” value ([5]; 500 ug/uL) was 0.217, the “Absorbance 405 nm” value ([5]; 1000 ug/uL) was 0.519 and the “Absorbance 490 nm” value ([5]; 1000 ug/uL) was 0.312. The “Absorbance 492 nm” value ([5]; 1000 ug/uL) was 0.226 and the “regulation of melanogenesis (decrease of absorption = decreased melanin formation)” value ([5]; melanocytes, Table 8) was “Regulation of melanogenesis was observed”.

From patent publication US12485079B2, “Compositions and methods relating to pigmentation” (Alastin Skincare, Inc., priority 2020, dated 2025)
